Source: publication PMC5839780 (The Journal of Cell Biology, 2018)

T1: HMmm1s–Mdm12 complex (K. lactis) (Kluyveromyces lactis, UniProt Q6CJU9+Q6CUC3)
T1 sequence (Q6CJU9 179-434): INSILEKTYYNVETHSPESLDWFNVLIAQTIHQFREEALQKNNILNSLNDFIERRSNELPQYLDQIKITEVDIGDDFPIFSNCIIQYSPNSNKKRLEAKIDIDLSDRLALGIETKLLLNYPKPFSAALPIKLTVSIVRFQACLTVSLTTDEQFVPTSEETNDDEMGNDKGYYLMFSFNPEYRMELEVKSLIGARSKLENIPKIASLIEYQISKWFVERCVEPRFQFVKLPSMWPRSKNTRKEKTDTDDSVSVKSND
T1 sequence (Q6CUC3 1-239): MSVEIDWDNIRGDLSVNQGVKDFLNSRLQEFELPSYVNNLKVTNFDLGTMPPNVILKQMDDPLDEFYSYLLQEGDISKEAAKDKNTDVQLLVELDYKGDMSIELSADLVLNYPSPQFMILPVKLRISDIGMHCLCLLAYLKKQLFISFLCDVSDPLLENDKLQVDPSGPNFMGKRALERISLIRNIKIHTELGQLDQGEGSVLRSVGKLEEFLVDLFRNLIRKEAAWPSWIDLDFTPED

T2: N-terminally His6-tagged K. lactis Mmm1s (179–434) I369S (Kluyveromyces lactis, UniProt Q6CJU9 179-434, I369S)
T2 sequence (looked up): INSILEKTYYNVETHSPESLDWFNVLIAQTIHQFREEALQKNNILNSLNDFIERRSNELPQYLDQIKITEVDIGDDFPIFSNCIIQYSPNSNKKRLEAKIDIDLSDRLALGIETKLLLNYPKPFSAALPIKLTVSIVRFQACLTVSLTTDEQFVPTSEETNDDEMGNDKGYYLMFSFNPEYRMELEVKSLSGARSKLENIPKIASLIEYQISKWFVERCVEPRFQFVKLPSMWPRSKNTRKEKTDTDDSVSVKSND

T3: N-terminally His6-tagged K. lactis Mmm1s (179–434) L274S (Kluyveromyces lactis, UniProt Q6CJU9 179-434, L274S)
T3 sequence (looked up): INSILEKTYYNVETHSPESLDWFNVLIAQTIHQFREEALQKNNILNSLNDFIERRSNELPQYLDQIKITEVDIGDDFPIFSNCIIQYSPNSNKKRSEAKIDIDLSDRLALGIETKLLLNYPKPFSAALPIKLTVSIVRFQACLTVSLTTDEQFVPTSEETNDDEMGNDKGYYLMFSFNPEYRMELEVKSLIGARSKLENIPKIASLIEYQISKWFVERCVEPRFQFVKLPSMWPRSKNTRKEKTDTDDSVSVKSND

T4: N-terminally His6-tagged K. lactis Mmm1s (179–434) V190S (Kluyveromyces lactis, UniProt Q6CJU9 179-434, V190S)
T4 sequence (looked up): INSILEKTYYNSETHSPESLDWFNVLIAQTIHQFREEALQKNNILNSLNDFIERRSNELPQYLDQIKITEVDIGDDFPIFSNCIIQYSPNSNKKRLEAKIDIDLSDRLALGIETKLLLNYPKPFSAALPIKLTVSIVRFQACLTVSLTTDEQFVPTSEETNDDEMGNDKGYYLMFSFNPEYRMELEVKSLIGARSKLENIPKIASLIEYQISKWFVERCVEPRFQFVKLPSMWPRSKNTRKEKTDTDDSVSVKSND


Columns and labels:
[1] = biological target: T1, HMmm1s–Mdm12 complex (K. lactis); experiment: NBD dequenching lipid transfer between liposomes; format: biochemical; details: 12.5 µM donor and 50 µM acceptor liposomes; pH 7.5; labelled compound
[2] = biological target: T2, N-terminally His6-tagged K. lactis …; experiment: co-purification of a coexpressed complex
[3] = biological target: T3, N-terminally His6-tagged K. lactis …; experiment: co-purification of a coexpressed complex
[4] = biological target: T4, N-terminally His6-tagged K. lactis …; experiment: co-purification of a coexpressed complex

Row | Molecule | NBD-PS transferred after 10 s [1] | binding result [2] | binding result [3] | binding result [4]
1 | CCCCCCCC/C=C\CCCCCCCC(=O)OC[C@H](COP(=O)(O)OC[C@H](Nc1ccc([N+](=O)[O-])c2nonc12)C(=O)O)OC(=O)CCCCCCC/C=C\CCCCCCCC [NBD-PS, 1,2-dioleoyl-sn-glycero-3-phospho-L-serine-N-(7-nitro-2-1,3-benzoxadiazol-4-yl)] | Efficiency of NBD-PS transfer between liposomes by HMmm1s–Mdm12 was threefold higher |  |  | 
2 | KlMdm12 (residues 1–239 of K. lactis Mdm12), nontagged (domain or fragment, Kluyveromyces lactis, UniProt Q6CUC3 1-239, looked up) MSVEIDWDNIRGDLSVNQGVKDFLNSRLQEFELPSYVNNLKVTNFDLGTMPPNVILKQMDDPLDEFYSYLLQEGDISKEAAKDKNTDVQLLVELDYKGDMSIELSADLVLNYPSPQFMILPVKLRISDIGMHCLCLLAYLKKQLFISFLCDVSDPLLENDKLQVDPSGPNFMGKRALERISLIRNIKIHTELGQLDQGEGSVLRSVGKLEEFLVDLFRNLIRKEAAWPSWIDLDFTPED |  | binds | binds | binds
